# Data from patent US20260201069A1, “ANTIBODIES THAT SPECIFICALLY BIND MODIFIED OLIGONUCLEOTIDES” (Hoffmann-La Roche Inc., priority 2024, published 2026).
# Tests used:
# [1] = test system: LNA2-Bi; test: Hybridoma antibody specificity immunoassay; type: binding; settings: hybridoma antibody subclones, Table 1-4
# From the text: (§1) From two selected animals, spleen cells were fused to Ag8 cells to generate antibody-producing hybridomas using state-of-the-art hybridoma cell technology. After cell fusion, hybridomas were screened for specific reactivity with LNA-containing ASOs using DNA-containing ASOs for specificity evaluation.
# (§2) In more detail, from two cell fusions, 3840 initial hybridoma clones resulting in 33 primary hybridoma clones were obtained. Thereof, 11 were selected for further characterization of binding characterization by biomolecular interaction analysis (kinetic and thermodynamic surface plasmon resonance). Five primary hybridoma clones were further processed by subcloning to generate monoclonal hybridoma cell culture clones.
# as §1, with “From immunoreactive mice (2 animals selected),” for “From two selected animals,”, “antibody-producing fusion cells” for “antibody-producing hybridomas”
# as §2, with “From two” for “In more detail, from two”, “binding properties” for “binding characterization”, “resonance). Finally, 5” for “resonance). Five”, “culture clones (Tables 1-3 and 1-4).” for “culture clones.”
# [2] = test system: LNA1-Bi; test: Hybridoma antibody specificity immunoassay; type: binding; settings: hybridoma antibody subclones, Table 1-4
# From the text: as §1, §2
# as §1, with “From immunoreactive mice (2 animals selected),” for “From two selected animals,”, “antibody-producing fusion cells” for “antibody-producing hybridomas”
# as §2, with “From two” for “In more detail, from two”, “binding properties” for “binding characterization”, “resonance). Finally, 5” for “resonance). Five”, “culture clones (Tables 1-3 and 1-4).” for “culture clones.”
# [3] = test system: DNA4b-Bi; test: Hybridoma antibody specificity immunoassay; type: binding; settings: hybridoma antibody subclones, Table 1-4
# From the text: as §1, §2
# as §1, with “From immunoreactive mice (2 animals selected),” for “From two selected animals,”, “antibody-producing fusion cells” for “antibody-producing hybridomas”
# as §2, with “From two” for “In more detail, from two”, “binding properties” for “binding characterization”, “resonance). Finally, 5” for “resonance). Five”, “culture clones (Tables 1-3 and 1-4).” for “culture clones.”
# [4] = test system: DNA2-Bi; test: Hybridoma antibody specificity immunoassay; type: binding; settings: hybridoma antibody subclones, Table 1-4
# From the text: as §1, §2
# as §1, with “From immunoreactive mice (2 animals selected),” for “From two selected animals,”, “antibody-producing fusion cells” for “antibody-producing hybridomas”
# as §2, with “From two” for “In more detail, from two”, “binding properties” for “binding characterization”, “resonance). Finally, 5” for “resonance). Five”, “culture clones (Tables 1-3 and 1-4).” for “culture clones.”
# [5] = test system: LNA4b-Bi; test: Hybridoma antibody specificity immunoassay; type: binding; settings: hybridoma antibody subclones, Table 1-4
# From the text: as §1, §2
# as §1, with “From immunoreactive mice (2 animals selected),” for “From two selected animals,”, “antibody-producing fusion cells” for “antibody-producing hybridomas”
# as §2, with “From two” for “In more detail, from two”, “binding properties” for “binding characterization”, “resonance). Finally, 5” for “resonance). Five”, “culture clones (Tables 1-3 and 1-4).” for “culture clones.”
# [6] = test system: DNA1-Bi; test: Hybridoma antibody specificity immunoassay; type: binding; settings: hybridoma antibody subclones, Table 1-4
# From the text: as §1, §2
# as §1, with “From immunoreactive mice (2 animals selected),” for “From two selected animals,”, “antibody-producing fusion cells” for “antibody-producing hybridomas”
# as §2, with “From two” for “In more detail, from two”, “binding properties” for “binding characterization”, “resonance). Finally, 5” for “resonance). Five”, “culture clones (Tables 1-3 and 1-4).” for “culture clones.”
# [7] = test system: LNA sequence (nucleotides/sequence of bases); test: Epitope mapping solid phase immunoassay (ELISA); type: binding
# From the text: The epitope was mapped using immunoassays with capture molecules containing the following binding epitopes as well as combinations thereof: • LNA (2′-0,4-C-methylene), • phosphorothioate in the NA backbone, • nucleotides/sequence of bases, • DNA, • GalNAc-C6-modification.
# The results of the epitope characterization of the antibodies according to the current invention by solid phase immunoassay (ELISA) using different biotinylated LNA, PS-backbone or DNA-containing NA-oligonucleotides as outlined above are shown in FIGS. 1 to 5.
# The selected monoclonal LNA-specific Abs were further characterized for binding characteristics and epitope mapped by immunoassay using capture molecules containing the following binding epitopes and combinations thereof • LNA (2′-O.4-C-methylene) • phosphorothioate in the NA backbone • nucleotides/sequence of bases • DNA • GalNAc-C6-modification
# The results of the antibody characterization by solid phase immunoassay (ELISA) using different biotinylated LNA, PS-backbone or DNA-containing NA-oligonucleotides are shown in FIGS. 1 to 5.
# [8] = test system: LNA-modified ASOs and antibody-ASO conjugates; test: SPR binding; settings: summary in words
# Description: (§3) In more detail, LNA binding of the antibodies according to the current invention was characterized by surface plasmon resonance (SPR) using a BIAcore instrument with a HEPES-based running and dilution buffer at 25° C. About 100-200 resonance units (RU) of an anti-LNA antibody with an Fc-region of the human IgG1 subclass and the mutations P329G, L234A and L235A (according to Kabat EU index; human IgG Fc-PGLALA) or an anti-LNA Fab fragment with human CL and CH1 (kappa, IgG1 isotype), respectively, was captured on the surface of a Series S Sensor Chip CM3 derivatized by standard amine coupling with either a mouse anti-human IgG Fc-PGLALA antibody or a goat anti-human F(ab′2) antibody with final total surface densities of approximately 5000 RU. Different LNA-modified ASOs were passed over the derivatized SPR chip surface by injecting the respective solutions in a 1:3 dilution series up to a final concentration of 1000 nM. Association was monitored for 3 min and dissociation for 5 min at a flow rate of 30 μl/min each. Bulk refractive index differences were corrected by subtracting blank injections and by subtracting the response obtained from the reference flow cell without captured antibody. Curve fitting was performed using the 1:1 Langmuir binding model within the BIAcore evaluation software.
# Further analyses of the pan anti-LNA antibody according to the invention produced by clone 1.9.21 a trivalent, bispecific format was used. This trivalent, bispecific format comprises an IgG1 Fc-region (with knobs-into-holes-cys1 mutations) to which at one of the N-termini of the Fc-region a germline Fab (DP47; SEQ ID NO: 137 and 138) has been fused and at both of the C-termini of the Fc-region each one anti-LNA Fab (fab 0699) according to the current invention produced by clone 1.9.21 has been fused (fusion 1861). […]
# To assess the specificities and affinities of LNA-binding antibodies, surface plasmon resonance was done as described in WO 2020/141117 and WO 2022/175217. […] Association was monitored for 3 min. and dissociation for 5 min. at a flow rate of 30 μl/min each. […]
# [9] = test system: ASO 827; test: SPR (BIAcore) binding kinetics and affinity; settings: analyte ASO 827; bivalent IgG format; 25° C.
# Description: as §3
# (§4) To assess the binding specificities and affinities of the LNA-binding antibodies according to the current invention, surface plasmon resonance was used as described, e.g., in WO 2020/141117 and WO 2022/175217.
# (§5) To assess the specificities and affinities of LNA-binding antibodies, surface plasmon resonance was done as described in WO 2020/141117 and WO 2022/175217. ASO binding was investigated by surface plasmon resonance (SPR) using a BIAcore T200 instrument (Cytiva). As a running and dilution buffer, HEPES buffered saline (HBS) containing 0.05% PS20 was used, the temperature was set to 25° C. For capturing anti-LNA Fabs or complete anti-LNA antibodies to a Series S Sensor Chip CM3 (Cytiva), either a mouse anti-human IgG antibody (Roche Diagnostics GmbH) or a goat anti-human F(ab′2) antibody (Jackson ImmunoResearch) was immobilized using standard amine coupling chemistry with final total surface densities of approximately 5000 resonance units (RU). The anti-LNA antibodies were captured to the surface by an injection for 30 sec., leading to response levels of approx. 100-200 RU. Different ASO molecules were injected in a 1:3 dilution series up to 1000 nM. Association was monitored for 3 min. and dissociation for 5 min. at a flow rate of 30 μl/min each. Subsequently, the surface was regenerated by injecting 10 mM NaOH (anti-human IgG antibody surface) or 10 mM Glycine pH 1.7 (anti-human IgG F(ab′2) antibody surface) for 60 sec. Bulk refractive index differences were corrected by subtracting blank injections and by subtracting the response obtained from the reference flow cell without captured antibody. Curve fitting was performed using the 1:1 Langmuir binding model within the BIAcore evaluation software.
# [10] = test system: fusion 2489 (antibody-ASO 918 conjugate); test: SPR (BIAcore) binding kinetics and affinity; settings: analyte fusion 2489; bivalent IgG format; 25° C.
# Description: as §3, §4, §5
# [11] = test system: ASO 297; test: SPR (BIAcore) binding kinetics and affinity; settings: analyte ASO 297, bivalent IgG format, 25° C.
# Description: as §3, §4, §5
# [12] = test system: ASO 042; test: SPR (BIAcore) binding kinetics and affinity; settings: analyte ASO 042; bivalent IgG format; 25° C.
# Description: as §3, §4, §5
# [13] = test system: fusion 2899 (antibody-ASO 918 conjugate); test: SPR (BIAcore) binding kinetics and affinity; settings: analyte fusion 2899; bivalent IgG format; 25° C.
# Description: as §3, §4, §5
# [14] = test system: ASO 420; test: SPR (BIAcore) binding kinetics and affinity; settings: analyte ASO 420, bivalent IgG format, 25° C.
# Description: as §3, §4, §5
Molecule,Signal LNA2-Bi [1] [OD],Signal LNA1-Bi [2] [OD],Signal DNA4b-Bi [3] [OD],Signal DNA2-Bi [4] [OD],Signal LNA4b-Bi [5] [OD],Signal DNA1-Bi [6] [OD],LNA sequence specificity [7],binding to the tested analytes (ASOs and antibody-ASO conjugates) [8],K [9],K [10],K [11],K [12],K [13],K [14],Koff ([11]; oos = out of specification),Kd ([14]; read-out: K) [nM]
"1.9.21 (antibody, V domains shown) VH: QVQLQQSGAELVRPGTSVKVSCKASGYAFTNYLIEWIKQRPGQGLEWIGVINPGSGGTNYNEKFRVKATLTADKSSSTAYMQLSSLTSDDSAVYFCARGGGYYWGQGTLVTVSA VL: DIVMTQAAPSVPVTPGESVSISCRSSKSLLHSNGNTYLFWFLQRPGQSPQVLIYRMSNLASGVPDRFSGSGSGTAFTLRISRVEAEDVGVYYCMQHLEYPYTFGSGTRLEIK",>4.000,>4.000,0.110,0.039,3.556,0.064,LNA sequence specific binders,–,–,–,–,–,–,–,–,–
"mAb 5391: anti-LNA antibody produced by clone 1.2.8 in the bivalent standard Y-shaped IgG format (antibody, V domains shown) VH: QIQLRESGPGLVAPSQSLSITCTVSGFSLTNYGVHWVRQPPGKGLEWLGVIWAGGSTIYNSALMSRLSISRDNSKSQVFLEMNSLQTYDTAMYYCARDRPFDGFFFSYWGQGTALTVSS VL: DVLMTQTPLSLPVSLGDQASISCRSSQAIVHRSGNTFLEWYLQKPGQSPKLLIYKVSNRFSGVPDRFSGSGSGTDFTLKINRVEAEDLGVYYCFQGSHVPYTFGSGTKLEIK",–,–,–,–,–,–,–,no to very low binding to all of the analytes tested,no binding,no/low binding,no binding,no binding,no/low binding,no binding,–,–
"1.2.8 (antibody, listed as Mus musculus, V domains shown) VH: QIQLRESGPGLVAPSQSLSITCTVSGFSLTNYGVHWVRQPPGKGLEWLGVIWAGGSTIYNSALMSRLSISRDNSKSQVFLEMNSLQTYDTAMYYCARDRPFDGFFFSYWGQGTALTVSS VL: DVLMTQTPLSLPVSLGDQASISCRSSQAIVHRSGNTFLEWYLQKPGQSPKLLIYKVSNRFSGVPDRFSGSGSGTDFTLKINRVEAEDLGVYYCFQGSHVPYTFGSGTKLEIK",2.012,2.330,0.034,0.037,1.916,0.041,–,–,–,–,–,–,–,–,–,–
"1.4.10 (antibody, listed as Mus musculus, V domains shown) VH: QIQLRESGPGLVAPSQSLSITCTVSGFSLVNYGIHWVRQPPGKGLEWLGVIWAGGSTIYNSALMSRLSISRDNSKNQVFLEMNSLQTYDTAMYYCARDRPFDGFFFSYWGQGTALTVSS VL: DVLMTQTPLSLPVSLGDQASISCRSSQAIVHRSGNTFLEWYLQKPGQSPKLLIYKVSNRFSGVPDRFSGSGSGTDFTLKINRVEAEDLGVYYCFQGSHVPYTFGSGTKLEIK",3.154,3.398,0.038,0.049,2.977,0.084,–,–,–,–,–,–,–,–,–,–
"1.7.15 (antibody, V domains shown) VH: QVQLKQSGPSFVQPSQSLSITCTVSGFSLTTYGVHWVRQSPGKGLEWLGVIWRSGGTDYNAAFMSRLSITKDNSKSQVFFKMNSLQTDDTAIYYCTNLYYWGQGTTLTVSS VL: DIVMTQATFSNPVTLGTSVSISCRSSKSLLRSNGITYLYWYLQKPGQSPQLLIYQMSNLASGVPDRFSSSGSGTDFTLRISRVEAEDVGVYYCGQNLELPYTFGSGTKVEIK",2.815,2.195,0.035,0.150,>4.000,0.060,LNA sequence specific binders,–,–,–,–,–,–,–,–,–
"mAb 5392: anti-LNA antibody produced by clone 1.7.15 in the bivalent standard Y-shaped IgG format (antibody, V domains shown) VH: QVQLKQSGPSFVQPSQSLSITCTVSGFSLTTYGVHWVRQSPGKGLEWLGVIWRSGGTDYNAAFMSRLSITKDNSKSQVFFKMNSLQTDDTAIYYCTNLYYWGQGTTLTVSS VL: DIVMTQATFSNPVTLGTSVSISCRSSKSLLRSNGITYLYWYLQKPGQSPQLLIYQMSNLASGVPDRFSSSGSGTDFTLRISRVEAEDVGVYYCGQNLELPYTFGSGTKVEIK",–,–,–,–,–,–,–,"binds to some of the ASOs, while showing no or very low binding to other ASOs",no binding,no/low binding,–,no binding,no/low binding,–,oos,198
